Consider one protein from paper PMC9815098 (Acta Crystallographica. Section D, Structural Biology, 2023).

For orientation: stoichiometry N means a count of units in the complex or per binding partner.

This data set deals with the molecule itself. Nature of the data set: SEC-MALS; RBP-CPN at 0.5, 1.0 and 5 mg ml^-1; Superdex 75 Increase 10/300 GL; 10 mM sodium phosphate pH 7.8, 50 mM sodium chloride, 0.02% sodium azide; room temperature; monomer to dimer.

B1: RBP-CPN (permuted N-terminal lobe of the ribose-binding protein from Thermotoga maritima) (domain or fragment)
chain: MKGKMAIVISTLNNPWFVVLAETAKQRAEQLGYEATIFDSQNDTAKESAHFDAIIAAGYDAIIFNPTDADGSIANVKRAKEAGIPVFCVDRGINARGLAVAQIYSDTSTQFPKLMARLAVEWADQYLRGG
notes: residue printed between position 263 and the HHHHHH tag; source: E. coli BL21 (DE3), purified (IMAC, SEC)
B1: the “stoichiometry N” value is 2.
